Biological target: head domain of PPRV ICV'89 strain H protein (residues 156-610) (peste des petits ruminants virus, strain Ivory Coast'89 (ICV'89))
Assay: SEC

“head domain of PPRV ICV'89 strain H protein (residues 156-610) (domain or fragment)” was tested, and the stoichiometry N was 2.
